Test results as given in PMC9381478, “A context-dependent and disordered ubiquitin-binding motif” (Cellular and Molecular Life Sciences: CMLS, 2022).
Read-outs that look alike come from different tables or passages of the source. One block for each substance: values may come before it.

Tests used:
SUMO (Homo sapiens) [1] = target: SUMO (Homo sapiens) (UniProt P63165); conditions: cited from earlier work
ubiquitin [2] = target: ubiquitin (UniProt P0CG48); conditions: cited from earlier work
[3] = target: S. pombe ubiquitin with an N-terminal 6xhistidine-tag, TEV-cleavage site and an N-terminal free cysteine (S. pombe) (UniProt P0CG72); assay: NMR titration; 100 µM 15N-ubiquitin, unlabelled peptide or protein added or titrated (peptides to 1 mM, WT Dss1 peptide to 5 mM); 20 mM NaH2PO4, 150 mM NaCl, 5 mM TCEP, pH 7.5; CSPs of 1H-15N-HSQC, global fit to a one-site model
ubiquitin [4] = target: ubiquitin (UniProt P0CG48); conditions: cited from earlier work; remark: listed apart in the source
SUMO (Homo sapiens) [5] = target: SUMO (Homo sapiens) (UniProt P63165); conditions: cited from earlier work; remark: listed apart in the source

Chain of SUMO (Homo sapiens) (P63165 2-97): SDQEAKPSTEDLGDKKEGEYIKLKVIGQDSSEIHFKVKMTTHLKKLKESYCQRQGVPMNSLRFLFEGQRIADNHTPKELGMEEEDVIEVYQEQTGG
Chain of Vps27 UIM (P40343 258-277): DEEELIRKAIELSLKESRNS
Chain of RABEX5 UIM (Q9UJ41 48-74): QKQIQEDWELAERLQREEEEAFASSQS

Substance: PIASX (from UniProt O75928)
Kd (SUMO (Homo sapiens) [1]): 1 µM

Substance: Vps27 UIM (from UniProt P40343)
Kd (ubiquitin [2]): 20 µM

Kd [3]: 3100 µM
Substance: Spd1 peptide (15-mer with the DisUBM of S. pombe Spd1)

Substance: RABEX5 UIM (from UniProt Q9UJ41)
Kd (ubiquitin [4]): 100 µM

Kd [3]: 25 µM
Substance: Dss1 DMD (from UniProt O14140 1-71) (natural protein)

Kd [3]: 300 µM
Substance: Dss1 DWD (from UniProt O14140 1-71) (natural protein)

Substance: PML-P (from UniProt P29590)
Kd (SUMO (Homo sapiens) [5]): 100 µM
